Laboratory results from patent US20170204182A1 (published 2017).
Changes are numbered by the printed parent chain.

T1: CD81 (UniProt P60033 1-236, limits assumed)
T1 construct: whole, on cells; also called CD81 receptor
T1 sequence (looked up): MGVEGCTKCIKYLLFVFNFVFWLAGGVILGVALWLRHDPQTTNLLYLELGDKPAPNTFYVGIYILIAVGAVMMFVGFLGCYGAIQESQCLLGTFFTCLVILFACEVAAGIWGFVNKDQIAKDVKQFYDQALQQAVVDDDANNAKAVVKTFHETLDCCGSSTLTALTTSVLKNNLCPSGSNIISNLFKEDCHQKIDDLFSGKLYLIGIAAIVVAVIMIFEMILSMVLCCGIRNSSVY

B1: Rb86 variant: HC Rb86 / LC 017--IMGT_hVK_1_17 (antibody, V domains shown)
VH: QSVEESGGRLVTPGTPLTLTCTVSGFSLSSNAINWVRQAPGKGLEWIGYIAVSGNTYYASWAKGRFTISKASTTVDLKMTSPTAEDTGTYFCGKSNIWGPGTLVTVSL
VL: DIQMTQSPSSLSASVGDRVTITCRSSQSVRTNKLAWFQQKPGQPPKRLIYSASTLDFGVPSRFSGSGSGTEFTLTISSLQPEDFATYYCLGYFDCSIADCVAFGGGTKVEIK
B2: Rb86 variant: HC 001_IGHV3_23_04 / LC 013--IMGT_hVK_1_17 (antibody, V domains shown)
VH: QQLVESGGGLVQPGGSLRLSCAASGFSLSSNAINWVRQAPGKGLEWVGYIAVSGNTYYASWAKGRFTISRDNSKNTLYLQMNSLRAEDTAVYYCGKSNIWGQGTLVTVSS
VL: B1 VL with P8T, S25A, S28G, D56Q, F57S
B3: Rb86 variant: HC 001_IGHV3_23_04 / LC 015--IMGT_hVK_1_17 (antibody, V domains shown)
VH: B2 VH
VL: B1 VL with S25A, S28G, D56Q, F57S, C95S, C100S
B4: Rb86 variant: HC 001_IGHV3_23_04 / LC 017--IMGT_hVK_1_17 (antibody, V domains shown)
VH: B2 VH
VL: B1 VL
B5: Rb86 variant: HC 001_IGHV3_23_04 / LC 014--IMGT_hVK_1_17 (antibody, V domains shown)
VH: B2 VH
VL: B1 VL with S25A, S28G, D56Q, F57S, P81S
B6: Rb86 variant: HC 001_IGHV3_23_04 / LC 012--IMGT_hVK_1_17 (antibody, V domains shown)
VH: B2 VH
VL: B1 VL with S25A, S28G, D56Q, F57S
B7: CD81K04 HC CD81K04 / LC CD81K04 (antibody, V domains shown)
VH: QVQLQQSGPELVKPGASVKISCKASGYTFSSSWMNWVKQRPGKGLEWIGRIYSGDGDAIYNGKFKGKATLTADKSSSTAYMQLSSLTSEDSAVYFCAREGKTGDLLLRSWGQGSALTVSS
VL: DIVLTQSPASLSVSLGQRATISCRASKSVSTSIYSYMHWYQQKPGQPPKLLIKYASYLESGVPARFSGSGSGTDFTLNIHPVEEEDAATYYCEHSREFPFTFGTGTKLEIK
notes: chimeric form of murine CD81K04
B8: CD81K04 HC K04_JA-13-hVH_1_3 / LC CD81K04 (antibody, V domains shown)
VH: QVQLVQSGAEVKKPGASVKVSCKASGYTFSSSWMNWVRQAPGQRLEWMGRIYSGDGDAIYNGKFKGRVTITRDTSASTAYMELSSLRSEDTAVYYCAREGKTGDLLLRSWGQGTLVTVSS
VL: B7 VL
B9: Rb86 variant: HC 001_IGHV3_23_04 / LC 010--IMGT_hVK_1_17 (antibody, V domains shown)
VH: B2 VH
VL: B1 VL with S25A, S28G, A35G, F37Y, Q43K, P44A, D56Q, F57S

Target: T2, phosphorylated human tau protein (human, UniProt P10636-8 1-441, limits assumed, S422 phosphorylation)
T2 construct: also called pTau
Assay: SPR (BIAcore), captured antibody

T2 sequence (P10636 other isoform, or with tags, fused parts or gaps limits assumed): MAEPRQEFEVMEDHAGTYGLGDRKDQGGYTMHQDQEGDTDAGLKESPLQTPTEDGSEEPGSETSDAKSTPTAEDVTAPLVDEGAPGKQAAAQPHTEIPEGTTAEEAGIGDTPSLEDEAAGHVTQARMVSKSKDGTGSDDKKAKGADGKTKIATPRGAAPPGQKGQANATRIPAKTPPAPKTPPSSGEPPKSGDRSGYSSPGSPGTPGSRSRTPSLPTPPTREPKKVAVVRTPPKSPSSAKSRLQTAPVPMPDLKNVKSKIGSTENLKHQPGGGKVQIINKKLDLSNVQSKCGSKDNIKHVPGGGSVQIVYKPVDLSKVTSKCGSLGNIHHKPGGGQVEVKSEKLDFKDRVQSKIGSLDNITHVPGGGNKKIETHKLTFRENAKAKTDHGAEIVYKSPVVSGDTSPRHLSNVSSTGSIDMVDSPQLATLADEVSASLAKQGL

Row | Binder | half-life (t1/2) [min]
1 | B1 | 23.2
2 | B2 | 5.65
3 | B3 | 3.02
4 | B4 | 5.26
5 | B5 | 5.08
6 | B6 | 4.67

Target: T1, CD81
Assay: cell ELISA
Method: For the binding cell ELISA assay, HuH7-Rluc-H3 (positive cell line expressing CD81) and HuH7-Rluc-L1 (negative control cell line) were propagated in F-12 DMEM medium with 10% FCS at 37° C. and 5% CO₂. On day 1, the cells were trypsinized at approximately 90% confluence and resuspended at 4×10⁵ cells/mL. […] On day 2, the antibody samples to be tested were prepared in a separate polypropylene round bottom plate with a twofold desired concentration with a final volume of 120 μl. All of the assay samples were diluted in cell culture medium. […] After fixation, each well was washed 3 times with 200 μL PBS/0.05% Tween. The secondary incubation step for detection of bound anti-CD81 antibodies was performed for 2 h at room temperature on a reciprocal shaker. […] Each well was washed three times with 200 PBS/0.05% Tween to remove unbound antibodies. […] The absorbance was read using the ELISA Tecan reader at 450 nm with 620 nm reference wavelength.

Row | Binder | ELISA absorbance
7 | B7 | 1.14
8 | B8 | 0.975

Target: T2, phosphorylated human tau protein
Assay: SPR (BIAcore); value set to 0 where kd not determinable

Row | Binder | half-life (t1/2) [h]
9 | B9 | 0
